Consider 1 substance from patent publication US20260008864A1.

Test [1] concerns the target CD3 on cells (PBMC, primary patient samples). The test can be described thus: flow cytometry on a primary patient sample, control panel: CD3-V450 staining is kept (reference for the bionic panel).
Test [2] shares this target. The test can be described thus: flow cytometry, PBMC treated with C-IgG, dot plot CD38-PE against CD3-V450; reference panel for the treated samples; unstained panel: CD3 0%.

As to non-binding IgG antibody, the % CD3-V450 stained cells (control panel) in test [1] was 25%. The substance also came in with a CD3 (% of PBMC in the CD3-V450 positive, CD38-PE negative quadrant) in test [2] of 25%.
